The source of these data is patent US20230019342A1.

Square brackets hold non-standard residues; d marks the D form. Primed or numbered codes have the meaning given here. Ends that are not written are not given here. * marks the point of attachment. D‑Lys(pentyne) = D-Lys(pentyne) amide, alkyne-bearing D-lysine, C#CCCC(=O)NCCCC[C@@H](N*)C(N)=O; S3(3) = biotin-PEG2-acylated azidolysine clicked to D-Pra carrying 5-azido-pentanoic acid; Lys(N3) = [N-]=[N+]=NCCCC[C@H](N)C(=O)O; S3″ = biotin-PEG2 linker with azide; dPra = C#CC[C@@H](N)C(=O)O

In one data set the target is T1, N-tL (not fully specified).
T1 chain 1: WKVKL
T1 chain 2: HNGYF
T1 chain 3: XYYRFG

The target in data set [1] is Active Akt2 (with N terminal His6 tag) (human) (UniProt P31751). The data set is described as follows: single-component immunoassay (ELISA, mono-L as detection agent, FIG. 23A).
Data set [2] has the same target. The data set can be described thus: single-component ELISA (bi-L as detection agent, FIG. 23A). In general terms: ELISA stands for enzyme-linked immunosorbent assay.
For data set [3] the target is unchanged. The data set can be described thus: single component ELISA, N-tL as surface-localized capture agent (FIG. 23A).
Data set [4] shares this target. The data set can be described thus: SPR, Biacore T100, N-tL immobilised on SA chip, Akt2 protein as analyte, 1:1 model, 10° C. (In general: Surface plasmon resonance follows binding to a sensor surface in real time, without labels.)
The target is the same in data set [5]. The data set is described as follows: not stated there (summary of the ELISA and SPR results).
Data set [6] addresses Inactive Akt2 (with N terminal His6 tag) (human) (UniProt P31751). The data set can be described thus: ELISA, immobilised C-tL, active against inactive Akt2 (FIG. 23E).
Data set [7] addresses Active Akt2 (with N terminal His6 tag) (human) (UniProt P31751). The data set is described as follows: cell-based or functional assay.
Data set [8] has the same target. The data set can be described thus: single component ELISA, C-tL as surface-localized capture agent (FIG. 23A).
The target of data set [9] is Active Akt1 (with N terminal His6 tag) (human) (UniProt P31749). The data set can be described thus: ELISA, C-tL immobilised on streptavidin plate, 25 nM His6 tagged full protein, anti His6 detection, triplicate.
For data set [10], the target named is Active Akt3 (with N terminal His6 tag) (human) (UniProt Q9Y243). Described as above.
Sequence of Active Akt3 (with N terminal His6 tag) (human) (Q9Y243 other isoform, or with tags, fused parts or gaps): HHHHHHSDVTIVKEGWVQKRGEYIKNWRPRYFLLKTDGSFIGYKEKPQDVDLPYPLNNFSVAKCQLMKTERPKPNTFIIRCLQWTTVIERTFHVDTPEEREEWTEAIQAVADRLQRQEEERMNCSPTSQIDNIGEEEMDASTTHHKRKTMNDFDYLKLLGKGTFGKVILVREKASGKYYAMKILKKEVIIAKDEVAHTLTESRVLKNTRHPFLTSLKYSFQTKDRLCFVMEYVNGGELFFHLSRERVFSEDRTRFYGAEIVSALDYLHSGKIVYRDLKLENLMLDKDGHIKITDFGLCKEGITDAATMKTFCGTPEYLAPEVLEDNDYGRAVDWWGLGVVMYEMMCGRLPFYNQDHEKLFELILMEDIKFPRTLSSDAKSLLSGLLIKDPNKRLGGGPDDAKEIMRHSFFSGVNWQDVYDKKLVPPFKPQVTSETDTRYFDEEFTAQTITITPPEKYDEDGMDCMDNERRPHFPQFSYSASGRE

Sequence of Active Akt1 (with N terminal His6 tag) (human) (P31749 other isoform, or with tags, fused parts or gaps): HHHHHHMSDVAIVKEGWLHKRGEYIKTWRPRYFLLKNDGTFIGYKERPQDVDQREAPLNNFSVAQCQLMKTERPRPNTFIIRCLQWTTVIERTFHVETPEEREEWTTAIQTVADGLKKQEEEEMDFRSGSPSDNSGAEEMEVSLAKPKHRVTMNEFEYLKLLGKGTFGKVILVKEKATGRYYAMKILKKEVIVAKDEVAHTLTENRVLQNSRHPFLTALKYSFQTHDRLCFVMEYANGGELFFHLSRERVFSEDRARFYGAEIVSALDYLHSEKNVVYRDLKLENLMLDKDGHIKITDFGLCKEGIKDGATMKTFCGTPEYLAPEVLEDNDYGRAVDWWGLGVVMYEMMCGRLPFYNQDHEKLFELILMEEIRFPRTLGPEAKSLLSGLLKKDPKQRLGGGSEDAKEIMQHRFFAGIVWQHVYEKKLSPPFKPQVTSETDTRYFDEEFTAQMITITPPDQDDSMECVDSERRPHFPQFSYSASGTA

B1: Active Akt2 (with N terminal His6 tag) (protein)
chain: HHHHHHMNEVSVIKEGWLHKRGEYIKTWRPRYFLLKSDGSFIGYKERPEAPDQTLPPLNNFSVAECQLMKTERPRPNTFVIRCLQWTTVIERTFHVDSPDEREEWMRAIQMVANSLKQRAPGEDPMDYKCGSPSDSSTTEEMEVAVSKARAKVTMNDFDYLKLLGKGTFGKVILVREKATGRYYAMKILRKEVIIAKDEVAHTVTESRVLQNTRHPFLTALKYAFQTHDRLCFVMEYANGGELFFHLSRERVFTEERARFYGAEIVSALEYLHSRDVVYRDIKLENLMLDKDGHIKITDFGLCKEGISDGATMKTFCGTPEYLAPEVLEDNDYGRAVDWWGLGVVMYEMMCGRLPFYNQDHERLFELILMEEIRFPRTLSPEAKSLLAGLLKKDPKQRLGGGPSDAKEVMEHRFFLSINWQDVVQKKLLPPFKPQVTSEVDTRYFDDEFTAQSITITPPDRYDSLGLLELDQRTHFPQFSYSASIRE
Consider B1, for which the “Akt2 kinase activity: phosphorylation of the GSK-3α/β substrate, Western blot” value with N-tL was “The N-tL was found to activate Akt2”.

B2: mono-L (peptide)
peptide: [dPra][dW][dK][dV][dK][dL]-NH2
modifications: not fully specified (residue 1, N-terminus); printed as (D-Pra)-wkvkl; also: D-Pra side chain clicked (triazole) to azide of S1 (azidolysine-PEG2-biotin), biotin label
Molecule B2 returned an affinity in data set [1] of 3 µM.

B3: bi-L (peptide)
peptide 1: {S3(3)}-[dW][dK][dV][dK][dL]-NH2
peptide 2: [dH][dN]G[dY][dF][dPra]
modifications: triazole (positions not given here); also: branched two-arm conjugate, triazole to a chain's N/C-terminus via S3
In turn, B3 yielded an affinity in data set [2] of 1 µM.

B4: N-tL (peptide)
peptide 1: [dW][dK][dV][dK][dL]
peptide 2: [dH][dN]G[dY][dF]
peptide 3: Ac-[dPra][dY][dY][dR][dF]G-NH2
modifications: not fully specified (bridges)
For orientation: EC50 means the concentration giving half of the maximal effect. Read a low EC50 as a more potent agent. As usually defined, the Kd is the constant that tells how readily two partners part at equilibrium. Molecule B4 registered an EC50 in data set [3] of 19 nM. Moreover, the Kd in [4] was 25 nM. In data set [5], this molecule had an affinity of 20 nM.

B5: C-tL (peptide)
peptide 1: Ac-[Lys(N3)][dH][dD]GG[dF]-NH2
peptide 2: {S3″}-[dW][dK][dV][dK]-{D‑Lys(pentyne)-NH2}
peptide 3: [dH][dN]G[dY][dF][dPra]
modifications: not fully specified (bridges); also: branched three-arm conjugate, triazole at chain A 1 to a chain's C-terminus, triazole to a chain's N/C-terminus via S3
As for B5, the selectivity ratio (p-Akt2 over Akt2) (fold (ratio, reference p-Akt2)) in [6] stood at 5. Besides, the Akt2 kinase activity: phosphorylation of the GSK-3α/β substrate, Western blot, EC50 in [7] was 4000 nM. For the same molecule, the 50% effective concentration (EC50) in data set [8] stood at 125 nM. Moreover, the selectivity ratio (Akt2 over Akt1) (fold (ratio, reference full-length Akt2)) in data set [9] came to 5. For the same molecule, the selectivity ratio (Akt2 over Akt3) (fold (ratio, reference full-length Akt2)) in [10] came to 10.
